Assay results: paper PMC11642874 (bioRxiv, 2024)
One block for each binder: values may come before it.

Tests used:
[1] = biological target: Human mitochondrial RNA polymerase (POLRMT) Δ42 (human, UniProt O00411 43-1230); experiment: cryo-EM structure
[2] = biological target: T1, POLRMT-LSPDNA(−42to+9)-TFAM (P-D-T) complex (human, UniProt O00411 43-1230; Q00059 43-245); experiment: fluorescence polarisation
[3] = biological target: POLRMT Δ42;TFAM Δ42;TFB2M Δ59 (human;human;human, UniProt O00411;Q00059;Q9H5Q4 43-1230;43-246;60-396, ||); experiment: SEC and DLS
POLRMT Δ42;TFAM Δ42;TFB2M Δ59, sequence (O00411 43-1230, stated change not applied, one chain of several): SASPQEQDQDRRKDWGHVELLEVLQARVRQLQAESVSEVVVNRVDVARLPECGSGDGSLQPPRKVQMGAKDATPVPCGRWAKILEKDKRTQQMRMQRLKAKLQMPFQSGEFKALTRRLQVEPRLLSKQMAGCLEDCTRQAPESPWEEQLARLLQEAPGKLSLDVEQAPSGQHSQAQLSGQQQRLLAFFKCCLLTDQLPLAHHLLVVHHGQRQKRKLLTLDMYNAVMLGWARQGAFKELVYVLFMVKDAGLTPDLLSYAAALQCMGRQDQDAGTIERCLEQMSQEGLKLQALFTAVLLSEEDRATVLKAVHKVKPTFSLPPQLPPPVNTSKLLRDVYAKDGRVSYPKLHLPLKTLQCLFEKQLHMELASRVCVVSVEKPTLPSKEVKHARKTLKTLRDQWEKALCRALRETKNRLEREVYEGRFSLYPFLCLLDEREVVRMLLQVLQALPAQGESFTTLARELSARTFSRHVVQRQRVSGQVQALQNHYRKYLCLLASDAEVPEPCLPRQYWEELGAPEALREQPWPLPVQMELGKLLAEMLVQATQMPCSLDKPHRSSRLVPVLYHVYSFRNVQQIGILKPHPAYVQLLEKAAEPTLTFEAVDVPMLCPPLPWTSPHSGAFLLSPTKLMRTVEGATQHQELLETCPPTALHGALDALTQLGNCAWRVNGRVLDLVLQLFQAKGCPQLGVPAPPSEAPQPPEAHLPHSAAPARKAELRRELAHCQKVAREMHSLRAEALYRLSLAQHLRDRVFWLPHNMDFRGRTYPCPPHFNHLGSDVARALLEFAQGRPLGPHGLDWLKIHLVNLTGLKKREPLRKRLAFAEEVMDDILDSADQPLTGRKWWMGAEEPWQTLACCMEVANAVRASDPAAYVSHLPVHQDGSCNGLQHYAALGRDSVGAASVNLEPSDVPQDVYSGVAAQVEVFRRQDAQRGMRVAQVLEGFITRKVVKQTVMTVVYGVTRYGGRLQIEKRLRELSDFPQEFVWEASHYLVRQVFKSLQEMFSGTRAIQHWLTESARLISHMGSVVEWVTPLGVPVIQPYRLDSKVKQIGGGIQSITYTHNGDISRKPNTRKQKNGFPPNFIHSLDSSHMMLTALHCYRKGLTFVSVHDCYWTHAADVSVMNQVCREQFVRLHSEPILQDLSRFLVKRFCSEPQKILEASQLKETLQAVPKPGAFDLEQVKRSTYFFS

POLRMT Δ42;TFB2M Δ59 = POLRMT Δ42;TFB2M Δ59 (human;human, UniProt O00411;Q9H5Q4 43-1230;60-396, |); experiment: cryo-EM structure 3.15 A
POLRMT Δ42;TFB2M Δ59, sequence (O00411 43-1230, stated change not applied, one chain of several): as above

[4] = biological target: T1, POLRMT-LSPDNA(−42to+9)-TFAM (P-D-T) …; experiment: fluorescence polarisation; remark: listed apart in the source
[5] = biological target: POLRMT Δ42;TFAM Δ42;TFB2M Δ41, Alexa488 (human;human;human, UniProt O00411;Q00059;Q9H5Q4 43-1230;43-246;42-396, ||); experiment: fluorescence polarization
POLRMT Δ42;TFAM Δ42;TFB2M Δ41, Alexa488, sequence (O00411 43-1230, stated change not applied, one chain of several): as above

T1 sequence (O00411 43-1230, one chain of several): as the sequence (O00411 43-1230, stated change not applied, one chain of several) above
Human mitochondrial RNA polymerase (POLRMT) Δ42, sequence (O00411 43-1230, stated change not applied): as the sequence (O00411 43-1230, stated change not applied, one chain of several) above

B3: LSP -43 to +13, -4 to +1 bubble (56 bp) (dsDNA)
DNA 1: ATGTGTTAGTTGGGGGGTGACTGTTAAAAGTGCATACCGAACAAAGATAAAATTTG
DNA 2: CAAATTTTATCTCCAGGCGGTATGCACTTTTAACAGTCACCCCCCAACTAACACAT
- binding result [3]: binds

B4: LSP bubble with pppGpGpA RNA (slipped IC3) (mixed)
DNA 1: ATGTGTTAGTTGGGGGGTGACTGTTAAAAGTGCATACCGAACAAAGATAAAATTTG
DNA 2: CAAATTTTATCTCCAGGCGGTATGCACTTTTAACAGTCACCCCCCAACTAACACAT
?: GGA
modifications: RNA 5' triphosphate
- binding result (POLRMT Δ42;TFB2M Δ59): binds

B7: LSP -42 to +9 duplex (dsDNA)
DNA 1: TGTGTTAGTTGGGGGGTGACTGTTAAAAGTGCATACCGCCAAAAGATAAAA
DNA 2: TTTTATCTTTTGGCGGTATGCACTTTTAACAGTCACCCCCCAACTAACACA
- Kd [5]: 6.1 nM

B8: Human transcription factor 2 (TFB2M) Y209A (natural protein, UniProt Q9H5Q4 21-396, looked up)
chain: GRFCILGSEAATRKHLPARNHCGLSDSSPQLWPEPDFRNPPRKASKASLDFKRYVTDRRLAETLAQIYLGKPSRPPHLLLECNPGPGILTQALLEAGAKVVALESDKTFIPHLESLGKNLDGKLRVIHCDFFKLDPRSGGVIKPPAMSSRGLFKNLGIEAVPWTADIPLKVVGMFPSRGEKRALWKLAADLYSCTSIYKFGRIEVNMFIGEKEFQKLMADPGNPDLYHVLSVIWQLACEIKVLHMEPWSSFDIYTRKGPLENPKRRELLDQLQQKLYLIQMIPRQNLFTKNLTPMNYNIFFHLLKHCFGRRSATVIDHLRSLTPLDARDILMQIGKQEDEKVVNMHPQDFKTLFETIERSKDCAYKWLYDETLEDR
- binding result [2]: binds

B9: Human transcription factor 2 (TFB2M) (GS)3-loop (natural protein, UniProt Q9H5Q4 21-396, looked up)
chain: GRFCILGSEAATRKHLPARNHCGLSDSSPQLWPEPDFRNPPRKASKASLDFKRYVTDRRLAETLAQIYLGKPSRPPHLLLECNPGPGILTQALLEAGAKVVALESDKTFIPHLESLGKNLDGKLRVIHCDFFKLDPGSGSGSGPPAMSSRGLFKNLGIEAVPWTADIPLKVVGMFPSRGEKRALWKLAYDLYSCTSIYKFGRIEVNMFIGEKEFQKLMADPGNPDLYHVLSVIWQLACEIKVLHMEPWSSFDIYTRKGPLENPKRRELLDQLQQKLYLIQMIPRQNLFTKNLTPMNYNIFFHLLKHCFGRRSATVIDHLRSLTPLDARDILMQIGKQEDEKVVNMHPQDFKTLFETIERSKDCAYKWLYDETLEDR
- binding result [2]: binds

Further lines, results first:

- binding result [1]: binds
B1: Human transcription factor 2 (TFB2M) Δ59 (natural protein, UniProt Q9H5Q4 60-396, looked up)
chain: PPRKASKASLDFKRYVTDRRLAETLAQIYLGKPSRPPHLLLECNPGPGILTQALLEAGAKVVALESDKTFIPHLESLGKNLDGKLRVIHCDFFKLDPRSGGVIKPPAMSSRGLFKNLGIEAVPWTADIPLKVVGMFPSRGEKRALWKLAYDLYSCTSIYKFGRIEVNMFIGEKEFQKLMADPGNPDLYHVLSVIWQLACEIKVLHMEPWSSFDIYTRKGPLENPKRRELLDQLQQKLYLIQMIPRQNLFTKNLTPMNYNIFFHLLKHCFGRRSATVIDHLRSLTPLDARDILMQIGKQEDEKVVNMHPQDFKTLFETIERSKDCAYKWLYDETLEDR

- binding result [2]: binds
B2: Human transcription factor 2 (TFB2M) SGG-AAA (natural protein, UniProt Q9H5Q4 60-396, looked up)
chain: PPRKASKASLDFKRYVTDRRLAETLAQIYLGKPSRPPHLLLECNPGPGILTQALLEAGAKVVALESDKTFIPHLESLGKNLDGKLRVIHCDFFKLDPRAAAVIKPPAMSSRGLFKNLGIEAVPWTADIPLKVVGMFPSRGEKRALWKLAYDLYSCTSIYKFGRIEVNMFIGEKEFQKLMADPGNPDLYHVLSVIWQLACEIKVLHMEPWSSFDIYTRKGPLENPKRRELLDQLQQKLYLIQMIPRQNLFTKNLTPMNYNIFFHLLKHCFGRRSATVIDHLRSLTPLDARDILMQIGKQEDEKVVNMHPQDFKTLFETIERSKDCAYKWLYDETLEDR

- Kd [4]: 6.1 nM
B5: Alexa488-Δ41 TFB2M (natural protein, human, UniProt Q9H5Q4 42-396, looked up)
chain: CGLSDSSPQLWPEPDFRNPPRKASKASLDFKRYVTDRRLAETLAQIYLGKPSRPPHLLLECNPGPGILTQALLEAGAKVVALESDKTFIPHLESLGKNLDGKLRVIHCDFFKLDPRSGGVIKPPAMSSRGLFKNLGIEAVPWTADIPLKVVGMFPSRGEKRALWKLAYDLYSCTSIYKFGRIEVNMFIGEKEFQKLMADPGNPDLYHVLSVIWQLACEIKVLHMEPWSSFDIYTRKGPLENPKRRELLDQLQQKLYLIQMIPRQNLFTKNLTPMNYNIFFHLLKHCFGRRSATVIDHLRSLTPLDARDILMQIGKQEDEKVVNMHPQDFKTLFETIERSKDCAYKWLYDETLEDR
modifications: Alexa Fluor 488 C5 maleimide label (labelling efficiency ~76%)

- binding result [1]: binds
B6: Human mitochondrial transcription factor A (TFAM) Δ42 (natural protein, UniProt Q00059 43-245, looked up)
chain: SSVLASCPKKPVSSYLRFSKEQLPIFKAQNPDAKTTELIRRIAQRWRELPDSKKKIYQDAYRAEWQVYKEEISRFKEQLTPSQIMSLEKEIMDKHLKRKAMTKKKELTLLGKPKRPRSAYNVYVAERFQEAKGDSPQEKLKTVKENWKNLSDSEKELYIQHAKEDETRYHNEMKSWEEQMIEVGRKDLLRRTIKKQRKYGAEE
